Experimental data as given in PMC7762974, “Recombination and Pol ζ Rescue Defective DNA Replication upon Impaired CMG Helicase—Pol ε Interaction” (International Journal of Molecular Sciences, 2020).

Assays:
Test in all cases: pull-down; 2 pmol Halo-Sld5 GINS fixed on 10 µL HaloLink Resin, blocked with casein and BSA; 2 pmol Pol ε with 2 mg/mL BSA in 400 µL 25 mM HEPES-KOH pH 7.6, 200 mM K-acetate, 2 mM Mg-acetate, 10% glycerol, 0.1% Tween 20, 0.01% NP-40, 30 °C for 30 min; blot for Dpb2 and Psf2, band intensity compared to Psf1
[1] = target: GINS complex with the Psf1-1 mutant subunit (R84G), Psf2, Psf3, Halotag-Sld5 (S. cerevisiae) (UniProt Q12488)
[2] = target: GINS complex with the Psf1-100 mutant subunit (V161A, F162A, I163A, D164A), Psf2, Psf3, Halotag-Sld5 (S. cerevisiae) (UniProt Q12488)
[3] = target: T1, DNA polymerase epsilon (Pol ε) comprising Pol2, Dpb2, Dpb3 and Dpb4 subunits (S. cerevisiae, UniProt P21951 1-2222; P24482 1-689; P27344 1-201; Q04603 1-196); details: both partners purified
T1 construct: Pol2, catalytic subunit of DNA polymerase epsilon, S. cerevisiae; Dpb2, noncatalytic subunit of DNA polymerase epsilon, S. cerevisiae; Dpb3, noncatalytic subunit of DNA polymerase epsilon, S. cerevisiae; Dpb4, noncatalytic subunit of DNA polymerase epsilon, S. cerevisiae; source: purified as described previously [40]; copies: + + +
T1 sequence (P21951 whole entry, chain 1 of 4): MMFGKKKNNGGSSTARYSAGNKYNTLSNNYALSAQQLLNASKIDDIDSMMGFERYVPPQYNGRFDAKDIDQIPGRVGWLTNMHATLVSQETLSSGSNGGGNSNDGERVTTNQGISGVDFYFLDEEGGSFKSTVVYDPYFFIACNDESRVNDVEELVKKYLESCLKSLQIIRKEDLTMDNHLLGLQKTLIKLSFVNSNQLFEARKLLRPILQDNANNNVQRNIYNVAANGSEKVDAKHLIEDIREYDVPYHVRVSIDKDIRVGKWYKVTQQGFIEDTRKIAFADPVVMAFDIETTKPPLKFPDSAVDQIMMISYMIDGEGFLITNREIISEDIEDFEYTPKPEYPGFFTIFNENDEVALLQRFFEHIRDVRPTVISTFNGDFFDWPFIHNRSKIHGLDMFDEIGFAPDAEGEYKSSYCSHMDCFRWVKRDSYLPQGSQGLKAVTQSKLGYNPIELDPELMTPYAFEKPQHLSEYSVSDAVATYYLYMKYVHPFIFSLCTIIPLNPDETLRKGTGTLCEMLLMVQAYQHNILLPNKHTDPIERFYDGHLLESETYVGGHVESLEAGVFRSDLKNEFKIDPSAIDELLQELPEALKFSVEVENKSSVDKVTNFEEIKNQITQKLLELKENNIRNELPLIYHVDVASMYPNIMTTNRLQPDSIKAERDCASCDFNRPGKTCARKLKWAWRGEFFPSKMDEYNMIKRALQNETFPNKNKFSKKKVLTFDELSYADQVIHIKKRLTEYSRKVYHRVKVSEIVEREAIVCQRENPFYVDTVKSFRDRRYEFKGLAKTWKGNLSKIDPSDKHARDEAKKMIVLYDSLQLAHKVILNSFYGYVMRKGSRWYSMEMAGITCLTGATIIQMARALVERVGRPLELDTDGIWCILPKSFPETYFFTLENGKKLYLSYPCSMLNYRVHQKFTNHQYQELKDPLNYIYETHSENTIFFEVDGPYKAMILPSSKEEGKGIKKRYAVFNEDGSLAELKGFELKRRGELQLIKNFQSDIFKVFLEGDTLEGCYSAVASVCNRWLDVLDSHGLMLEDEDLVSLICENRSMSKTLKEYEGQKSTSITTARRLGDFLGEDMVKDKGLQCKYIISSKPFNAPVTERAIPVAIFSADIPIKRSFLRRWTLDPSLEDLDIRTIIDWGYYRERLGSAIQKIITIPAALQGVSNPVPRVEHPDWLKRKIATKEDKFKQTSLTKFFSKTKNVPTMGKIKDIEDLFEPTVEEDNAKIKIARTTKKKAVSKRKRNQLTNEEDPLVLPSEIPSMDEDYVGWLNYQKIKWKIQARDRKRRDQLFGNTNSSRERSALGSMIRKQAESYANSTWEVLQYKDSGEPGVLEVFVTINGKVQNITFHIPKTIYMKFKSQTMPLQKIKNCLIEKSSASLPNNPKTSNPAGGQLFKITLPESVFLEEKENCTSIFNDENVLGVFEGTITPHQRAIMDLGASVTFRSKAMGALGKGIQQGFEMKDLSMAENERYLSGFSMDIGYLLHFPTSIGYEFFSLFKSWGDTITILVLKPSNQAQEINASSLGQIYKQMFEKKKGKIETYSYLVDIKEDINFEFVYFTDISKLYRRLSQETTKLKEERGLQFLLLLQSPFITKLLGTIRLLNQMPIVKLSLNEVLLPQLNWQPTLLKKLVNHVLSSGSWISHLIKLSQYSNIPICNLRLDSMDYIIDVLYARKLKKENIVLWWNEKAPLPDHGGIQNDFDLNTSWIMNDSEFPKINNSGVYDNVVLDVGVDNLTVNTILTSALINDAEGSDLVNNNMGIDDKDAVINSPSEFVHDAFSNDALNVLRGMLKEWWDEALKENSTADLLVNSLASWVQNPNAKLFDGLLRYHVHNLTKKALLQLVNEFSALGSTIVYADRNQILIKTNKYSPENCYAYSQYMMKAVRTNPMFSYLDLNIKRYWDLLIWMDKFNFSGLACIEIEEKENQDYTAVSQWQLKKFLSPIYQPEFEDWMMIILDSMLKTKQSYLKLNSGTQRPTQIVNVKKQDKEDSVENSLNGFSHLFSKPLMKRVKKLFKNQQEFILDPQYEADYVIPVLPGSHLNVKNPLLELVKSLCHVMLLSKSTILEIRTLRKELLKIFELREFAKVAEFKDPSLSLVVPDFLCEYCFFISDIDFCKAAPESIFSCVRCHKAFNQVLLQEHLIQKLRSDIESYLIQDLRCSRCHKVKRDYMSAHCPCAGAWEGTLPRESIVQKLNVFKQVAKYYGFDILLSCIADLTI
T1 sequence (P24482 whole entry, chain 2 of 4): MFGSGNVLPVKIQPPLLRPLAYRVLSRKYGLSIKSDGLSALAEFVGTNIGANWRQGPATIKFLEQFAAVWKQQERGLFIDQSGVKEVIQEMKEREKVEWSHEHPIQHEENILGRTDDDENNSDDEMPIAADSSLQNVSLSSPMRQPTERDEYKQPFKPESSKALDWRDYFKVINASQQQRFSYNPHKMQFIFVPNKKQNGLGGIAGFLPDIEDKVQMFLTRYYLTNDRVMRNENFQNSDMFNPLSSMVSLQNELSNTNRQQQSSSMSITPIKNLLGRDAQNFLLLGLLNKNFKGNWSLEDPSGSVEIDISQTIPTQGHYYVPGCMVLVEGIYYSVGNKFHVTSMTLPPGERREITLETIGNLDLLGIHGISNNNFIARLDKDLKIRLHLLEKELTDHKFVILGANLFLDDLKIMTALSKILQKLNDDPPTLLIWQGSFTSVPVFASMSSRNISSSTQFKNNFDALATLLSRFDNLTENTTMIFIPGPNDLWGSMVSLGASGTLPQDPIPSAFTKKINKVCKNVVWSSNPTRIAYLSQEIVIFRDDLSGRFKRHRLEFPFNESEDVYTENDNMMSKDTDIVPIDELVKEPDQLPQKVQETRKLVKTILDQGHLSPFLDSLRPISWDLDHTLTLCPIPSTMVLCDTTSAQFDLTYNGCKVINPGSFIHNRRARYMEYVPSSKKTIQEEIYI
T1 sequence (P27344 whole entry, chain 3 of 4): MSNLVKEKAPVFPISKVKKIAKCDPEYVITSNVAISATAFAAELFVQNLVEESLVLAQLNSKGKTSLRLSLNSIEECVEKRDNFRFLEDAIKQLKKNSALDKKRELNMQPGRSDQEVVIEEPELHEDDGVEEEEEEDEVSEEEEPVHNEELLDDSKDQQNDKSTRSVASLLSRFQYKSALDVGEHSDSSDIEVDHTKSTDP
T1 sequence (Q04603 whole entry, chain 4 of 4): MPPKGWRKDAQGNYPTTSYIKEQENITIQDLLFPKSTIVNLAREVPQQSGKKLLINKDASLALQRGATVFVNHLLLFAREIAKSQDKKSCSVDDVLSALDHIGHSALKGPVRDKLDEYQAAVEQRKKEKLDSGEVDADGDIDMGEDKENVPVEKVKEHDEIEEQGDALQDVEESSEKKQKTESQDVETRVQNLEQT

band intensity compared to Psf1 (relative to Psf1) [1] | band intensity compared to Psf1 (relative to Psf1) [2] | binding result [3] | Molecule
0.96 | 0.31 |  | DNA polymerase epsilon (Pol ε) comprising Pol2, Dpb2, Dpb3 and Dpb4 subunits, P21951 1-2222; P24482 1-689; P27344 1-201; Q04603 1-196
 |  | binds | GINS complex (Psf1, Psf2, Psf3, Halotag-Sld5), wild type (complex, S. cerevisiae, Psf1 subunit of GINS, S. cerevisiae; Psf2 subunit of GINS, S. cerevisiae; Psf3 subunit of GINS, S. cerevisiae; Sld5 subunit of GINS, S. cerevisiae; also called GINS_(Psf1); WT; source: purified as described previously [40]; copies: + + +) chain 1: MYGDLGNKLVLEAKRTKQLYARSNQDVNLPMYHEDIIRNILKEVSNLRKNTEYLKEQQQLGMLDDKVAKCQYFVTLLCMERNKRCLLAYQRLRTDILDSMAWNNNGLDLMSSITFSQQDTNNLSHQEQEYLKEYCDLITDLKSGDLVDIDLSGSLVPPSDVFIDVRVLKDAGEIQTEYGVFNLIKDSQFFVRQSDVERLIQQGYLQKI chain 2: MSLPAHLQQTFSPEEIQFIVENEPIKIFPRITTRQKIRGDDRGTGNHTRWQLITTDDKALNNMVAMRSTEVVLWIALLLKQQSKCSIVAPQWLTTKELDRKIQYEKTHPDRFSELPWNWLVLARILFNKAKDDFHDPIHELRGKIQDLREIRQIKVLKGLKYLNESHLQLDNLSLLEINELRPFITEIMDKLREIHTASLTAGTENDEEEFNI chain 3: MGYYDIDDVLADGTEFPCKFQYDIPGLGYLENNPGRPITKNTKLSLPLWLARILAIVGGDEALVDEEPVPFVELLPPDMFSTKVMNAIKTDPVALDLHSINSHFFSLAIKWIMLFSEKELANVVSELLLQRAQELNHHASSLSIDLNADSTGKNSANTNIATSTFLLKLEEMEKEIYKKSHESYKDTKRWMFKK chain 4: MDINIDDILAELDKETTAVDSTKITQGSSSTTHRDANTIVGSSLDLNDKTQIYVSPQQDFSDLMKSWKNERCSPELLPYPHQLMKRLLNRISMQSQLIENISMGFLDMQNASNANPPMPNESKLPLLCMETELERLKFVIRSYIRCRLSKIDKFSLYLRQLNEDENSLISLTDLLSKDEIKYHDTHSLIWLKLVNDSILKYMPEELQAINDTEGSVNMIDEPDWNKFVFIHVNGPPDGKWNEDPLLQENEFGKPCYTVTIPDLKEEVELTIGSIYVMRYEVIRDLLRDDKVALI
